Literature values in paper PMC8900292.

Biological target: VAMP2 juxtamembrane LD (UniProt P63027)
UniProt P63027, sequence (P63027 whole entry, looked up): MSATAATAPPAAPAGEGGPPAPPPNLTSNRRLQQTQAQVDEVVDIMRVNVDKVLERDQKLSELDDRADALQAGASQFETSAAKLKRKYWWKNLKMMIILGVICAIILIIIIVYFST

## Munc13-1 MUN (from UniProt Q62768)
  Kd: 10 µM
